The series can be described thus: label from the status in PepcDB records.

The text below walks through data of a protein production outcome set (Wang et al. 2014).

As for “MTMFGKIFSKKTPKTDIKSNGEALNASEIEQFIKDTLSHYISDNFPQGVLAVCQQLSITQKKKITIKLLMPFVCQGELDLLAQTLSENLARTVNFEIDLAIKPVRQFSLGNDKNKAGQEGMLQGKVANIIAIASGKGGVGKSTTTVNLAYALMCEGARVGILDADIYGPSIPSMLGLKNEKPSSSDGKLMTPVDAKGLSAMSIGFLVDEADATVWRGPMASSAFNQLLNETDWPELDYLLIDMPPGTGDIQLTLAQKVPVAAAVIVTTPQDIALIDAVKGIAMFDKVKVPVLGIVENMSYHLCENCGHKSHIFGEAGGEHMAEDHETKLLGQLPLDITIRQDADFGESDIIENSAGEIANHYRKIARNVSAQLFLQCDTASPLTATVAHKALEHHHHHH”, the protein production entry is recorded as “not failed”.
In the case of “MTMQDILYYIHTYGLIVLFLIVVGEYCVPAMPTGIVMPAAGIIAGQAHKGIIKVMLISLIAGLVGSIILYLLGYFVGSTLLEKIKIKHPKIEDKLEKTEKILEKHSFLGIFICRLIPIIRTYVSLICGTVKVNFFKFIIFSIPGIFCWNFTGIVVGYFFGGKIRF”, the protein production result was “failed”.
To “MTMREYMLGNVAIARGLLEGGVQVIAGYPGTPSSEIIDTLASREDRDYHIEWSVNEKVAMEVAVGAAWTGVRSVVTMKHVGLNVAADPFMTLAYAGTKGGLIAIVADDPSCHSSQNEQDTRRYAQFALVPCFDPSTPQEAKDMLPYAFEFSEKFEIPVIFRPTTRISHGKSDIELGEIPAEKAVPHFEKLLDRWVMLPKNARPRHTHILSIQQAMEDELAESPWNSLEIKPGAKMGVIGSGIASVYAKEALQELGLEASFLKIGTYPVPKKLILELLSTVDTVLIFEELEPVVEEQVRILAQEAGLEVSVLGKEGGFVSREGELDVSAFLEALRKAFDLDIEPDSGKVPLELAPRPPSLCAGCSHRATFYSMKKVFGKDAIYPSDIGCYTLGIQSGTVETTLCMGSSISIASGLYHAGEKRPICCSIGDSTFFHTGMNSLLNAVFNKANITVTILDNRITAMTGHQPNPGVGFTVTGEPTVEVSLAELCKAMGAGFVTVVDPYNLEETQEAFKAAKEFEGTAVVIAKQPCVISGKRAGIKRVPYIVDPEKCEGCKQCVKFGCPAIEFDEENKCAVITSLCSGCGVCAQICKFDAIREVKR” belongs “failed”; to “MTNAEAVTVTNKQIIFPDYVTGFPKESDLKITTTTIDLRLPEGSTSVLVKNLYLSCDPYMRICMGKPDPLSSSLVPPYKTGVPIIGLGVSKVIDSGHPDYKKGDLLWGLVGWEEYSVITLTTYSHFKIEHTDVPLSYYTGLLGMPGMTAYAGFYEVCSPKKGETVFVSAASGAVGQLVGQFAKLMGCYVVGSAGSKEKVYLLKTKFGFDDAFNYKEEKDFSAALKRYFPEGIDIYFENVGGKMLDAVLINMKLHGRVAVCGMISQYNLVDPEGVHNLPTILYKRIQLQGFGVCDFYDKYPKFLDFVLPYIREGKITYVEDIAEGFESGPSALLGLFEGKNVGKQLFVVARE”, “failed”; to “MTNAISNFTIYAFVALGGACGASLRFYISQLVLNWLGKGFPFATLMVNIIGSFTMGLLYQLIEHEILNVSVHRTLIGIGFLGAFTTFSTFSLDSLLLLQQGDVLKAAINILLNVSLCIAAAALGMFMVTTLTK”, “failed”.
Under “MTNFTQSINFPGSLPLTRNLLAAACFFAMTQASAAGFISDVKQISDQEVRSGEGYYRADGKWLVYQAEVAGENPFYQIYLKNIASGEVQQVSPGIGKTTCSWVHPIQEKVLFSSTHEDPEAKAKMTTEIEQRKSGQRRSYAWDYDEFYDIYETDFAGGNIRNLTHTKGYDAEASWSPDGRLIAFASNRRAYSEPLSEAETVLFSNDPSSMIDIYIMDADGSNVKRLTHTNSYDGGPFFSPDGKRIVWRRFSENGQEAEIFTMNTDGSDQKQITRLNKMSWAPFYHPSNQYIIFATNVHGHRNFELYIVDIDGKKEPVRVTDEEGFDGLPVFTPDGQYITWTSDRTPDHKGRLFHGKWDHKKALESLGLE” stands “failed”; under “MTNHQHPQTTTQWIDLIANSELPAITSTARMLDKFSNDDKSSLPKLSEAILHDQGLSSCLLKVANNIQHISINKVTTVSRASVVLGIQSVKNICLTAKLVSSLLASKSLDINVYEQLTQLMANSFYAGMLAKMMVPNYSEEIQEEVYLAAMLYRIGESAFWSAGGDVAKKLANYEAKSPQDFNQYCRKEMGTNFSELSKGLAGTWNLSDLLIKALDQPTTRTDEVKVIYFADKLSAIIAKPEGCEEDYHKLLKEIAYIVGISVRQLTVRIEHTREQAEKLLSSYGAEILTERINSLPTAEDFKSLGGDFDTREVVSKDKALLNGFMKLTKLIQNSKDFNEYLQLTLESLALTFAFDRSSFLMLVDDRARVKSRLVVNKNAQDDASKINIDIKHSDNVIARVISTDTAALINDHQEIRWRDLVTEEISEVIVEGAIAFVPVKIGGKAIGVICLQLLSPDQKIETQDFQQICAFIDHLNMCLTMIKYS”, “failed”.
To “MTNITPEAKNTNRHSVLLVEKEGRNLARKYHQVLVEELTIIKQGYKTFSSKNIAIPSGFWYHYDTSLTDSYENAKSECFYIPNDNQNYPLQEMRRDCKEYERVEKQVVFKNNKNNELNELPKYLNNAKKY” belongs “failed”; to “MTNLEAKENNLIKDLASKQRVAIAYSGGIDSTYLLKVAVDELGKDNVLAMVVNSELFLDDEYNKALELAKDLGANAMGVSMSELADERIAANTPESWYYSKQLLYRTIKKAAAEKGFDIVLDGMIMDDNADFRPGMKARTEEGIVSSLQDADLYKSEIRELAKDRGISNWNKVASC”, “not failed”; to “MTNMKTHAREWAALDKSACFLFCSGDNDVAQQLGHAIGDLGLLTQELPEPEQLARRLADIDPQVVFLDFTGGQADPGKLLLAADLARVLARVAPAVPRVAVGYLAQPDGAIAALRAGVSDFVDPSVSPDEVHGVVQRLVSNRRIGGGSGGEHRSVLILGARPGVGASTLAVHMAGLTQERMAQAALARQGAVAGKPARSAEVMAAQLPLSDRVGVLDLGWPIGDCLLYLNISSDFDFAEAARNLSRLDGTLLNSAMAHTASGVSALALPREVEQVRALSPNDSLLLFERLRQHYGTLVTDAGGLANPEFVAKLARASHETWLVTDQSVSALVSLAGAVQELEQFHVEKSALRLVVNRYDERYGMSAAQIAERFGLELAGTLPDRTLSLMVCTNQGRLLHEQAERDIYVRAVQTLVDRLLAGSEAPRARHNSWLANWLPGVHRLTNVVESLEHHHHHH”, “failed”.
For the sequence “MTNNEYTDISNKETDVSPANIEQLKSVSMIWFVPFVALLIGAWMIYYQLSNEGPVITIAFDSAEGMEIGKTKIKSYNVDIGEVSNIVLNENADGVIVTARMTKNAEKLLNKNSDFWLVSPEISHTGISGLSTLISGVYIEFYPSSIHEEEVDELTSEFIALKDPPVTPPGAPGLHLTLNSNDQFAYSKGDPIIYKGLTVGQFEHIHFNFEERVVYYNAFIKAPYHQLVTTNTKFWDVSGLRMDLTADGLSIQTGNIETMLTNGVTFDVPKGMENGEEITERSYFDIYANYKEADDERYKYSVEYIVLVSNTIRGLSVGAPVEYRGVLIGHVKSINLLAQRNSDRPQIFDEDIKIPILISLQPGRVGLPDNEMGVSLMKQQHQLWIKDGLRASLKTGSLLTGSLFIDFQHYSDLNNEEENTQRTDFENSQYGEYTIIPSVDDEFSQITAKASQFIDNLNALPLEKISGNTNELITEFTQTAKSFQSVSDNLSGVLDGVNQQQLTQELKTTLQSYTKLSKDLSAGSKGYEDLRQTLSALTKVMNELQPLLNQLKHQPNGLIFESGKVDAIEPKKYTPNKKAE”, the protein production entry was “failed”.
To “MTNTTYVQEYHAIVEVLSKYNEGGKKADSTIMRPAFSSQATIFGVDVDNKLTGGPIQGLFDVIDNVFHPSPEAKAAIARIDIVGTAASARIDTDDISGFRFTDFFNLLKVEGKWTVVSKIYHTHPSA” belongs “not failed”.
To “MTNVISYNNDKGLLAYIQFLADRALKPSNGNTDPVFDFEDALDQTEMAQLAVDELKKIPEVNTLFAERWLPAPFNLDDLAKLPEGTLGHVYAIEMKARGFDPYFYKKVPVVDDISYLKMLWRSTHDIYHVVAGFDTDGIGEIGLQAFVLAQTPIPISVMLVSFGMVMTSLYQPAKFQDLMAEIARGYSLGSHTPRKLIAQKWDQFWDVPVIEIRECLGMNTVKQRERA” belongs “failed”; to “MTPDDQLSAFLGEQPATSRADLFTAVVMQKIERRAFLRDVAAAGGWAAVVGLVAWACAPVLNVLIGALAPGLAPAAAALALVAATLLVSSPSVRRRLGLAAV”, “failed”.
To “MTPDRKGDGGPSPLGDLKDALGGYLSAAGHGLVGRAGDRLGSLTDRLTESADGGGANGGTGGSEPGTGGSRSGSDGSKSGSGGSKSGSGGSKSGGSVKATHIMETVDIGVPLRTVYDQWTQLQDFSDFTKGVQSVSPHDETTSDWTAKIAFSTRSWKATVQEQIPDQRIVWTSEGAKGSTNGVVTFHELAPRLTRVVVVVEYYPAGFFEKTGNLWRAQGRRLRLDLKHFARHVTMTDAEEIEGWRGEIRDGEVVKSHEEALEEDEDAADEYEDDEEGEYDEEESDGEVPDGEEEPYADEDDGEYENDDAYEADDEDDERARPRR” belongs “failed”; to “MTPEPDGPEDRLRRFATIWSRAVFPVTSTPLTRPELENRLLPLARRLSEALRARAFDAAEAKAVGAALIDAHCTDPDALSATLDCVDAYLVLYCGTPDASPGDQEALRTRASRLQHAMAAGFAQALRERTLAEQEAISVAALQAQGVVGQALHASEARFRAVFEGAAIGIGIADLEGNILQINGALLRMFGGSEQAVRGRNVTDWTHPDDAPQVWRLYEELVRGEREHYHVEKAFYRPDGTVLWTNLTVSLLRDADGRPEYQLALMEDTTERRLLNLRLRYEATHDALTGLPNRTLFFERLEKALSAGGGQRFGLCYLDLDGFKTINDSLGHAAGDRLLVEVADRLQSCATAPGEMVARLGGDEFVALTTGPDTEREVDELAGRIMNALVTPISIDGRELAVRGSIGIVEGPAGERGPAEVLRSADITMYRAKSAGGNRFELADPEADARAITRHGLTTALPAALDRNEFFIEYQPLVHLGDGSVRGAEALVRWLHPQHGVLGPDRFIPLAEHTGLIVPLGRWVLEQSVRQAREWQERHCAEAAAPLRINVNLSPCQLTHPGLVSDTVDILERSGLEPGALCLEVTESALIGADDDLLKPLRRLAEMGVDIALDDFGTGYSNLANLRRLPVSILKLDRSFTQGMQQYPADPVDLKIVEGIVTLAHSLDLAVTVEGVETGAQAEQLRILGCDTAQGWYYARPGPPERLHELALVDATG”, “failed”; to “MTPFTVDILIPIWNRPVETRNCLVTLMETTPSARLILIDNGSDRETERLLEEFSEILGERALFLKTSANQGFVRAVNRSLAQVEAPYAVVMQNTTLVTRGWLEPMVELADSRPDAGIIVPRLELEDGQGRRPKAAPPAGPVTEVSHGSFAASMVRRELVERQGGFDEELDGGPWCLRDYSRRAFRNGFLTLALDGAVVTYAEEVPLGSVARREETVRRSAETCRARWGREDAFCIYFPKDAEPEAVHGKLDVILRGARMGQCFTLILHPGLHKSLMETGHAPLHSNIALAPLPRFFATGEIRKIIGKLASVRGDTVTVAGVDGLSIPGVEGARSFSWLADEIRRRHESLYRPESPLEHHHHHH”, “not failed”.
On to “MTPHATPAPRVSAIVSLYNAERFVRGCLDDLLGQTLADSLEIIVIDACSPQGEGAIVQDYMRDHPNIVYVRTDEREGVYASWNRGVRLARAPYVTNANADDRHREDALERLAAALDEAPEAGFAYGDCRVGQTENERYADNAGQRVMRFPDFFAPATLLYCQLGPQPLWRRSVHDVVGFFDESYRACADWDFDIRLAAAFRGIHVPDALGLYLEHEAAITFRDDTMTRENDRVQRQWQHPEAVEERYRAAGVPCHTAEERALVHFDMALRALRFYPPWCYGAPAHNPGFARRCLRHALRLAPALAPAKELLALPDAVLTALDDLPSPLGLPSQATLAGVAAPLEHHHHHH”, for which the protein production entry was “failed”.
